The values below come from patent US20240018188A1.

[ ]: non-standard residue; d: D form. The star is where a group is joined. Dansyl = CN(C)c1cccc2c(S(=O)(=O)*)cccc12; 2Nal = N[C@@H](Cc1ccc2ccccc2c1)C(=O)O; dNle = CCCC[C@@H](N)C(=O)O; Ahx = NCCCCCC(=O)O; βAla = NCCC(=O)O; Sar = CNCC(=O)O

This test deals with human RAD51 (human) (UniProt Q06609). Nature of the test: cell-based or functional assay.

As a reminder, the IC50 is the concentration at which inhibition is half-maximal. Higher therefore signals weaker potency.

Chain of human RAD51 (human) (Q06609 2-339 limits assumed): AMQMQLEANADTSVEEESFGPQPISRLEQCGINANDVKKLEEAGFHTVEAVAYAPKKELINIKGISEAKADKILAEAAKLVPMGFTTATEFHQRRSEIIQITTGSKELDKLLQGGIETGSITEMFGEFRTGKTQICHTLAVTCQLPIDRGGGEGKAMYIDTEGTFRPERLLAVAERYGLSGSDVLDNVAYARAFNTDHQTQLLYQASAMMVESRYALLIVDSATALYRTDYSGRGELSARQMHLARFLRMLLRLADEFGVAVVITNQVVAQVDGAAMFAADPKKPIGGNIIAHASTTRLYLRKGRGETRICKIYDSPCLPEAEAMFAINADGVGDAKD

B1: Compound 22 (peptide)
peptide: Ac-[dL][dNle][dR][βAla][dV][dR][dL][dR][dV][βAla][dL][dR][dK][dR][dR][dR][dR][dR]G[2Nal]-NH2
SMILES: CCCC[C@@H](NC(=O)[C@@H](CC(C)C)NC(C)=O)C(=O)N[C@H](CCCNC(=N)N)C(=O)NCCC(=O)N[C@@H](C(=O)N[C@H](CCCNC(=N)N)C(=O)N[C@H](CC(C)C)C(=O)N[C@H](CCCNC(=N)N)C(=O)N[C@@H](C(=O)NCCC(=O)N[C@H](CC(C)C)C(=O)N[C@H](CCCNC(=N)N)C(=O)N[C@H](CCCCN)C(=O)N[C@H](CCCNC(=N)N)C(=O)N[C@H](CCCNC(=N)N)C(=O)N[C@H](CCCNC(=N)N)C(=O)N[C@H](CCCNC(=N)N)C(=O)N[C@H](CCCNC(=N)N)C(=O)NCC(=O)N[C@@H](Cc1ccc2ccccc2c1)C(N)=O)C(C)C)C(C)C
B1: the IC50 stood at 18 µM.

B2: Compound 12 (peptide)
peptide: Ac-[dL][dNle][dR]G[dV][dR][dL][dR][dV]G[dL][dR][dK][dR][dR][dR][dR][dR]G[2Nal]-NH2
SMILES: CCCC[C@@H](NC(=O)[C@@H](CC(C)C)NC(C)=O)C(=O)N[C@H](CCCNC(=N)N)C(=O)NCC(=O)N[C@@H](C(=O)N[C@H](CCCNC(=N)N)C(=O)N[C@H](CC(C)C)C(=O)N[C@H](CCCNC(=N)N)C(=O)N[C@@H](C(=O)NCC(=O)N[C@H](CC(C)C)C(=O)N[C@H](CCCNC(=N)N)C(=O)N[C@H](CCCCN)C(=O)N[C@H](CCCNC(=N)N)C(=O)N[C@H](CCCNC(=N)N)C(=O)N[C@H](CCCNC(=N)N)C(=O)N[C@H](CCCNC(=N)N)C(=O)N[C@H](CCCNC(=N)N)C(=O)NCC(=O)N[C@@H](Cc1ccc2ccccc2c1)C(N)=O)C(C)C)C(C)C
B2: the half-maximal inhibitory concentration (IC50) was determined as 17 µM.

B3: Compound 25 (peptide)
peptide: Ac-[dL][dNle][dR][dS][dV][dR][dL][dR][dV]G[dL][dR][Ahx][dR][Ahx][dR][Ahx][dR][Ahx][dR][Ahx][dR]-NH2
SMILES: CCCC[C@@H](NC(=O)[C@@H](CC(C)C)NC(C)=O)C(=O)N[C@H](CCCNC(=N)N)C(=O)N[C@H](CO)C(=O)N[C@@H](C(=O)N[C@H](CCCNC(=N)N)C(=O)N[C@H](CC(C)C)C(=O)N[C@H](CCCNC(=N)N)C(=O)N[C@@H](C(=O)NCC(=O)N[C@H](CC(C)C)C(=O)N[C@H](CCCNC(=N)N)C(=O)NCCCCCC(=O)N[C@H](CCCNC(=N)N)C(=O)NCCCCCC(=O)N[C@H](CCCNC(=N)N)C(=O)NCCCCCC(=O)N[C@H](CCCNC(=N)N)C(=O)NCCCCCC(=O)N[C@H](CCCNC(=N)N)C(=O)NCCCCCC(=O)N[C@H](CCCNC(=N)N)C(N)=O)C(C)C)C(C)C
With B3, the IC50 was 14 µM.

B4: Compound 23 (peptide)
peptide: Ac-[dL][dNle][dR][dA][dV][dR][dL][dR][dV][βAla][dL][dR][Ahx][dR][Ahx][dR][Ahx][dR][Ahx][dR][Ahx][dR]-NH2
SMILES: CCCC[C@@H](NC(=O)[C@@H](CC(C)C)NC(C)=O)C(=O)N[C@H](CCCNC(=N)N)C(=O)N[C@H](C)C(=O)N[C@@H](C(=O)N[C@H](CCCNC(=N)N)C(=O)N[C@H](CC(C)C)C(=O)N[C@H](CCCNC(=N)N)C(=O)N[C@@H](C(=O)NCCC(=O)N[C@H](CC(C)C)C(=O)N[C@H](CCCNC(=N)N)C(=O)NCCCCCC(=O)N[C@H](CCCNC(=N)N)C(=O)NCCCCCC(=O)N[C@H](CCCNC(=N)N)C(=O)NCCCCCC(=O)N[C@H](CCCNC(=N)N)C(=O)NCCCCCC(=O)N[C@H](CCCNC(=N)N)C(=O)NCCCCCC(=O)N[C@H](CCCNC(=N)N)C(N)=O)C(C)C)C(C)C
Turning to B4, the IC50 was found to be 20.6 µM.

B5: Compound 19 (peptide)
peptide: Dansyl-[Sar][dL][dNle][dR][dS][dV][dR][dL][dR][dV]G[dL][dR][dK][dR][dR][dR][dR][dR]-NH2
SMILES: CCCC[C@@H](NC(=O)[C@@H](CC(C)C)NC(=O)CN(C)S(=O)(=O)c1cccc2c(N(C)C)cccc12)C(=O)N[C@H](CCCNC(=N)N)C(=O)N[C@H](CO)C(=O)N[C@@H](C(=O)N[C@H](CCCNC(=N)N)C(=O)N[C@H](CC(C)C)C(=O)N[C@H](CCCNC(=N)N)C(=O)N[C@@H](C(=O)NCC(=O)N[C@H](CC(C)C)C(=O)N[C@H](CCCNC(=N)N)C(=O)N[C@H](CCCCN)C(=O)N[C@H](CCCNC(=N)N)C(=O)N[C@H](CCCNC(=N)N)C(=O)N[C@H](CCCNC(=N)N)C(=O)N[C@H](CCCNC(=N)N)C(=O)N[C@H](CCCNC(=N)N)C(N)=O)C(C)C)C(C)C
The molecule B5 came in with an IC50 of 6.2 µM.

B6: Compound 17 (peptide)
peptide: Ac-[dL][dNle][dR][dS][dV][dR][dL][dR][dV][βAla][dL][dR][dK][dR][dR][dR][dR][dR]G[2Nal]-NH2
SMILES: CCCC[C@@H](NC(=O)[C@@H](CC(C)C)NC(C)=O)C(=O)N[C@H](CCCNC(=N)N)C(=O)N[C@H](CO)C(=O)N[C@@H](C(=O)N[C@H](CCCNC(=N)N)C(=O)N[C@H](CC(C)C)C(=O)N[C@H](CCCNC(=N)N)C(=O)N[C@@H](C(=O)NCCC(=O)N[C@H](CC(C)C)C(=O)N[C@H](CCCNC(=N)N)C(=O)N[C@H](CCCCN)C(=O)N[C@H](CCCNC(=N)N)C(=O)N[C@H](CCCNC(=N)N)C(=O)N[C@H](CCCNC(=N)N)C(=O)N[C@H](CCCNC(=N)N)C(=O)N[C@H](CCCNC(=N)N)C(=O)NCC(=O)N[C@@H](Cc1ccc2ccccc2c1)C(N)=O)C(C)C)C(C)C
In the case of B6, the IC50 is 20 µM.

B7: Compound 24 (peptide)
peptide: Ac-[dL][dNle][dR][dA][dV][dR][dL][dR][dV][βAla][dL][dR][Ahx][dR][Ahx][dR][Ahx][dR][Ahx][dR][Ahx][dR][Ahx][dY]-NH2
SMILES: CCCC[C@@H](NC(=O)[C@@H](CC(C)C)NC(C)=O)C(=O)N[C@H](CCCNC(=N)N)C(=O)N[C@H](C)C(=O)N[C@@H](C(=O)N[C@H](CCCNC(=N)N)C(=O)N[C@H](CC(C)C)C(=O)N[C@H](CCCNC(=N)N)C(=O)N[C@@H](C(=O)NCCC(=O)N[C@H](CC(C)C)C(=O)N[C@H](CCCNC(=N)N)C(=O)NCCCCCC(=O)N[C@H](CCCNC(=N)N)C(=O)NCCCCCC(=O)N[C@H](CCCNC(=N)N)C(=O)NCCCCCC(=O)N[C@H](CCCNC(=N)N)C(=O)NCCCCCC(=O)N[C@H](CCCNC(=N)N)C(=O)NCCCCCC(=O)N[C@H](CCCNC(=N)N)C(=O)NCCCCCC(=O)N[C@H](Cc1ccc(O)cc1)C(N)=O)C(C)C)C(C)C
For the molecule B7, the IC50 is 6.2 µM.

B8: Compound 16 (peptide)
peptide: Ac-[dL][dNle][dR][dS][dV][dR][dL][dR][dNle]G[dL][dR][dK][dR][dR][dR][dR][dR]G[2Nal]-NH2
SMILES: CCCC[C@@H](NC(=O)[C@@H](CCCNC(=N)N)NC(=O)[C@@H](CC(C)C)NC(=O)[C@@H](CCCNC(=N)N)NC(=O)[C@H](NC(=O)[C@@H](CO)NC(=O)[C@@H](CCCNC(=N)N)NC(=O)[C@@H](CCCC)NC(=O)[C@@H](CC(C)C)NC(C)=O)C(C)C)C(=O)NCC(=O)N[C@H](CC(C)C)C(=O)N[C@H](CCCNC(=N)N)C(=O)N[C@H](CCCCN)C(=O)N[C@H](CCCNC(=N)N)C(=O)N[C@H](CCCNC(=N)N)C(=O)N[C@H](CCCNC(=N)N)C(=O)N[C@H](CCCNC(=N)N)C(=O)N[C@H](CCCNC(=N)N)C(=O)NCC(=O)N[C@@H](Cc1ccc2ccccc2c1)C(N)=O
Molecule B8 came in with an IC50 of 43 µM.

B9: Compound 21 (peptide)
peptide: Ac-[dL][dNle][dR][dS][dV][dR][dL][dR][dV]G[dL][dR][dR][dR][dR][dR][dR][Sar][Sar]-OMe
SMILES: CCCC[C@@H](NC(=O)[C@@H](CC(C)C)NC(C)=O)C(=O)N[C@H](CCCNC(=N)N)C(=O)N[C@H](CO)C(=O)N[C@@H](C(=O)N[C@H](CCCNC(=N)N)C(=O)N[C@H](CC(C)C)C(=O)N[C@H](CCCNC(=N)N)C(=O)N[C@@H](C(=O)NCC(=O)N[C@H](CC(C)C)C(=O)N[C@H](CCCNC(=N)N)C(=O)N[C@H](CCCNC(=N)N)C(=O)N[C@H](CCCNC(=N)N)C(=O)N[C@H](CCCNC(=N)N)C(=O)N[C@H](CCCNC(=N)N)C(=O)N[C@H](CCCNC(=N)N)C(=O)N(C)CC(=O)N(C)CC(=O)OC)C(C)C)C(C)C
In the case of B9, the IC50 came to 25 µM.

B10: Compound 14 (peptide)
peptide: Ac-[dL][dNle][dR][dS][dR][dR][dL][dR][dV]G[dL][dR][dK][dR][dR][dR][dR][dR]G[2Nal]-NH2
SMILES: CCCC[C@@H](NC(=O)[C@@H](CC(C)C)NC(C)=O)C(=O)N[C@H](CCCNC(=N)N)C(=O)N[C@H](CO)C(=O)N[C@H](CCCNC(=N)N)C(=O)N[C@H](CCCNC(=N)N)C(=O)N[C@H](CC(C)C)C(=O)N[C@H](CCCNC(=N)N)C(=O)N[C@@H](C(=O)NCC(=O)N[C@H](CC(C)C)C(=O)N[C@H](CCCNC(=N)N)C(=O)N[C@H](CCCCN)C(=O)N[C@H](CCCNC(=N)N)C(=O)N[C@H](CCCNC(=N)N)C(=O)N[C@H](CCCNC(=N)N)C(=O)N[C@H](CCCNC(=N)N)C(=O)N[C@H](CCCNC(=N)N)C(=O)NCC(=O)N[C@@H](Cc1ccc2ccccc2c1)C(N)=O)C(C)C
The molecule B10 gave an IC50 of 3500 µM.

B11: Compound 20 (peptide)
peptide: Dansyl-[Sar][dL][dNle][dR][dS][dV][dR][dL][dR][dV]G[dL][dR][dR][dR][dR][dR][dR][Sar][Sar]-OMe
SMILES: CCCC[C@@H](NC(=O)[C@@H](CC(C)C)NC(=O)CN(C)S(=O)(=O)c1cccc2c(N(C)C)cccc12)C(=O)N[C@H](CCCNC(=N)N)C(=O)N[C@H](CO)C(=O)N[C@@H](C(=O)N[C@H](CCCNC(=N)N)C(=O)N[C@H](CC(C)C)C(=O)N[C@H](CCCNC(=N)N)C(=O)N[C@@H](C(=O)NCC(=O)N[C@H](CC(C)C)C(=O)N[C@H](CCCNC(=N)N)C(=O)N[C@H](CCCNC(=N)N)C(=O)N[C@H](CCCNC(=N)N)C(=O)N[C@H](CCCNC(=N)N)C(=O)N[C@H](CCCNC(=N)N)C(=O)N[C@H](CCCNC(=N)N)C(=O)N(C)CC(=O)N(C)CC(=O)OC)C(C)C)C(C)C
B11 registered an IC50 of 8.6 µM.
